We go through one protein from ChEMBL document CHEMBL2074219, “Cellular uptake mechanism of amino acid ester prodrugs in Caco-2/hPEPT1 cells overexpressing a human peptide transporter” (Pharm Res, 1998).

For orientation: Km means the concentration of substrate that gives half-maximal velocity.

Substrate in data set [1]: CN(CC(=O)O)C(=O)CN
The data set can be described thus: TP_TRANSPORTER: uptake in PEPT1-overexpressing Caco-2 cells. It is filed as functional, cell-based.

Substrate in data set [2]: CN(CC(=O)O)C(=O)CN
The data set is described as follows: TP_TRANSPORTER: uptake in Caco-2 cells. It is filed as functional, cell-based.

B1: Solute carrier family 15 member 1 (Homo sapiens), P46059 (protein)
chain: MGMSKSHSFFGYPLSIFFIVVNEFCERFSYYGMRAILILYFTNFISWDDNLSTAIYHTFVALCYLTPILGALIADSWLGKFKTIVSLSIVYTIGQAVTSVSSINDLTDHNHDGTPDSLPVHVVLSLIGLALIALGTGGIKPCVSAFGGDQFEEGQEKQRNRFFSIFYLAINAGSLLSTIITPMLRVQQCGIHSKQACYPLAFGVPAALMAVALIVFVLGSGMYKKFKPQGNIMGKVAKCIGFAIKNRFRHRSKAFPKREHWLDWAKEKYDERLISQIKMVTRVMFLYIPLPMFWALFDQQGSRWTLQATTMSGKIGALEIQPDQMQTVNAILIVIMVPIFDAVLYPLIAKCGFNFTSLKKMAVGMVLASMAFVVAAIVQVEIDKTLPVFPKGNEVQIKVLNIGNNTMNISLPGEMVTLGPMSQTNAFMTFDVNKLTRINISSPGSPVTAVTDDFKQGQRHTLLVWAPNHYQVVKDGLNQKPEKGENGIRFVNTFNELITITMSGKVYANISSYNASTYQFFPSGIKGFTISSTEIPPQCQPNFNTFYLEFGSAYTYIVQRKNDSCPEVKVFEDISANTVNMALQIPQYFLLTCGEVVFSVTGLEFSYSQAPSNMKSVLQAGWLLTVAVGNIIVLIVAGAGQFSKQWAEYILFAALLLVVCVIFAIMARFYTYINPAEIEAQFDEDEKKNRLEKSNPYFMSGANSQKQM
For the protein B1, the Km in data set [1] was 2100 µM; in data set [2], 700 µM.
